Results reported in patent US20030026781A1 (MITOKOR, published 2003).

Key:
Experiment in all cases: cell-based or functional assay
[1] = target: mitochondrial ATP synthase (ETC Complex V) ATPase in rat liver submitochondrial particles (SMP) (rat, UniProt P15999 44-553; P10719 47-529; P35435 1-273; P35434 23-168; P29418 2-51)
[2] = target: purified F1-ATPase subcomplex isolated from bovine cardiac samples (bovine, UniProt P19483 44-553; P00829 47-528; P05631 26-297; P05630 23-168; P05632 2-51)
[3] = target: F0-F1-ATPase in rat ASMPs (alkaline submitochondrial particles) prepared from rat cardiac samples (rat, UniProt P15999 44-553; P10719 47-529; P35435 1-272; P35434 23-168; P29418 2-51)
[4] = target: purified F0-F1 ATPase complex isolated from bovine cardiac samples (bovine, UniProt P19483 44-553; P00829 47-528; P05631 26-297; P05630 23-168; P05632 2-51)

Row | IC50, inhibition of oligomycin-sensitive ATPase in rat liver SMP [1] [nM] | IC50, inhibition of ATP hydrolysis by purified F1-ATPase [2] [nM] | IC50, inhibition of F0-F1-ATPase in rat ASMPs [3] [nM] | IC50, inhibition of ATP hydrolysis by purified F0-F1-ATPase [4] [nM] | Binder
1 | > 2600 |  |  |  | SIREAGGAFGKREKAEEDRYFREKTREQL [IF1 peptide 14-42 (synthetic peptide fragment of rat IF1)]
2 |  | ~1390 |  |  | FGKREKAEEDRYFREKTREQLAALK [IF1(22-46) synthetic polypeptide, amino acids 22-46 of the mature form of rat IF1]
3 |  | ~870 | ~2500 | ~180 | LAALKKHHEDEIDHHSK [IF1(42-58) synthetic polypeptide, amino acids 42-58 of the mature form of rat IF1]
4 | > 1500 |  |  |  | SIREAGGAFGKREKAEEDRYFREKTREQLA [IF1 peptide 14-43 (synthetic peptide fragment of rat IF1)]
